B1: Apoptosis-associated speck-like protein containing a CARD, residues 114 to 194; numbered along this chain, Q9ULZ3 (parent)
chain: FIDQHRAALIARVTNVEWLLDALYGKVLTDEQYQAVRAEPTNPSKMRKLFSFTPAWNWTCKDLLLQALRESQSYLVEDLER

± gives the uncertainty stated by the source.

The data set covers variants of B1. Kind of data set: abundance fitness (aPCA) (normalised: wild type 0, dead -1); higher = more abundant; growth selection in yeast, the domain comes from the species named. Particulars: Homo sapiens.
FIDQHRAWLIARVTNVEWLLDALYGKVLTDEQYQAVRAEPTNPSKMRKLFSFTPAWNWTCKDLLLQALRESQSYLVEDLER: the abundance fitness was -0.776 ± 0.11. As for FIDQHRAAKIARVTNVEWLLDALYGKVLTDEQYQAVRAEPTNPSKMRKLFSFTPAWNWTCKDLLLQALRESQSYLVEDLER, the figure is -0.948 ± 0.25; as for FIDQHRAAAIARVTNVEWLLDALYGKVLTDEQYQAVRAEPTNPSKMRKLFSFTPAWNWTCKDLLLQALRESQSYLVEDLER, -0.901 ± 0.12; as for FIDQHRAAGIARVTNVEWLLDALYGKVLTDEQYQAVRAEPTNPSKMRKLFSFTPAWNWTCKDLLLQALRESQSYLVEDLER, -0.624 ± 0.067. Next, FIDQHRAADIARVTNVEWLLDALYGKVLTDEQYQAVRAEPTNPSKMRKLFSFTPAWNWTCKDLLLQALRESQSYLVEDLER: -0.798 ± 0.25. As for FIDQHRAAQIARVTNVEWLLDALYGKVLTDEQYQAVRAEPTNPSKMRKLFSFTPAWNWTCKDLLLQALRESQSYLVEDLER, the figure is -1.03 ± 0.27. In the case of FIDQHRAAFIARVTNVEWLLDALYGKVLTDEQYQAVRAEPTNPSKMRKLFSFTPAWNWTCKDLLLQALRESQSYLVEDLER, the abundance fitness is -0.763 ± 0.2. Regarding FIDQHRAAMIARVTNVEWLLDALYGKVLTDEQYQAVRAEPTNPSKMRKLFSFTPAWNWTCKDLLLQALRESQSYLVEDLER, the abundance fitness was -0.563 ± 0.14. On to FIDQHRAAHIARVTNVEWLLDALYGKVLTDEQYQAVRAEPTNPSKMRKLFSFTPAWNWTCKDLLLQALRESQSYLVEDLER, for which the abundance fitness was -0.749 ± 0.18. Next, FIDQHRAANIARVTNVEWLLDALYGKVLTDEQYQAVRAEPTNPSKMRKLFSFTPAWNWTCKDLLLQALRESQSYLVEDLER: -0.776 ± 0.35.

As to FIDQHRAAIIARVTNVEWLLDALYGKVLTDEQYQAVRAEPTNPSKMRKLFSFTPAWNWTCKDLLLQALRESQSYLVEDLER, the abundance fitness was -0.429 ± 0.12.

Regarding FIDQHRAAEIARVTNVEWLLDALYGKVLTDEQYQAVRAEPTNPSKMRKLFSFTPAWNWTCKDLLLQALRESQSYLVEDLER, the abundance fitness is -0.76 ± 0.17.

In the case of FIDQHRAARIARVTNVEWLLDALYGKVLTDEQYQAVRAEPTNPSKMRKLFSFTPAWNWTCKDLLLQALRESQSYLVEDLER, the abundance fitness is -0.925 ± 0.13. As to FIDQHRAACIARVTNVEWLLDALYGKVLTDEQYQAVRAEPTNPSKMRKLFSFTPAWNWTCKDLLLQALRESQSYLVEDLER, the abundance fitness was -0.558 ± 0.075.

For the variant FIDQHRAAPIARVTNVEWLLDALYGKVLTDEQYQAVRAEPTNPSKMRKLFSFTPAWNWTCKDLLLQALRESQSYLVEDLER, the abundance fitness is -0.694 ± 0.14. As to FIDQHDAALIARVTNVEWLLDALYGKVLTDEQYQAVRAEPTNPSKMRKLFSFTPAWNWTCKDLLLQALRESQSYLVEDLER, the abundance fitness is -0.724 ± 0.19. As for FIDQHIAALIARVTNVEWLLDALYGKVLTDEQYQAVRAEPTNPSKMRKLFSFTPAWNWTCKDLLLQALRESQSYLVEDLER, the figure is -0.389 ± 0.14; as for FIDQHFAALIARVTNVEWLLDALYGKVLTDEQYQAVRAEPTNPSKMRKLFSFTPAWNWTCKDLLLQALRESQSYLVEDLER, -0.538 ± 0.15; as for FIDQHVAALIARVTNVEWLLDALYGKVLTDEQYQAVRAEPTNPSKMRKLFSFTPAWNWTCKDLLLQALRESQSYLVEDLER, -0.416 ± 0.07.

For FIDQHLAALIARVTNVEWLLDALYGKVLTDEQYQAVRAEPTNPSKMRKLFSFTPAWNWTCKDLLLQALRESQSYLVEDLER, the abundance fitness was -0.362 ± 0.061. Turning to FIDQHPAALIARVTNVEWLLDALYGKVLTDEQYQAVRAEPTNPSKMRKLFSFTPAWNWTCKDLLLQALRESQSYLVEDLER, the abundance fitness was -0.685 ± 0.13. With FIDQHGAALIARVTNVEWLLDALYGKVLTDEQYQAVRAEPTNPSKMRKLFSFTPAWNWTCKDLLLQALRESQSYLVEDLER, the abundance fitness was -0.501 ± 0.057.

On to FIDQHHAALIARVTNVEWLLDALYGKVLTDEQYQAVRAEPTNPSKMRKLFSFTPAWNWTCKDLLLQALRESQSYLVEDLER, for which the abundance fitness is -0.635 ± 0.23. Next, FIDQHCAALIARVTNVEWLLDALYGKVLTDEQYQAVRAEPTNPSKMRKLFSFTPAWNWTCKDLLLQALRESQSYLVEDLER: -0.752 ± 0.17. FIDQHKAALIARVTNVEWLLDALYGKVLTDEQYQAVRAEPTNPSKMRKLFSFTPAWNWTCKDLLLQALRESQSYLVEDLER: the abundance fitness turned out to be 0.014 ± 0.1. Next, FIDQHNAALIARVTNVEWLLDALYGKVLTDEQYQAVRAEPTNPSKMRKLFSFTPAWNWTCKDLLLQALRESQSYLVEDLER: -0.397 ± 0.16; FIDQHEAALIARVTNVEWLLDALYGKVLTDEQYQAVRAEPTNPSKMRKLFSFTPAWNWTCKDLLLQALRESQSYLVEDLER: -0.141 ± 0.084; FIDQHTAALIARVTNVEWLLDALYGKVLTDEQYQAVRAEPTNPSKMRKLFSFTPAWNWTCKDLLLQALRESQSYLVEDLER: -0.549 ± 0.13. As for FIDQHMAALIARVTNVEWLLDALYGKVLTDEQYQAVRAEPTNPSKMRKLFSFTPAWNWTCKDLLLQALRESQSYLVEDLER, the figure is -0.107 ± 0.082; as for FIDQHAAALIARVTNVEWLLDALYGKVLTDEQYQAVRAEPTNPSKMRKLFSFTPAWNWTCKDLLLQALRESQSYLVEDLER, -0.074 ± 0.059. On to FIDQHQAALIARVTNVEWLLDALYGKVLTDEQYQAVRAEPTNPSKMRKLFSFTPAWNWTCKDLLLQALRESQSYLVEDLER, for which the abundance fitness was -0.285 ± 0.13.

Take FIDQHYAALIARVTNVEWLLDALYGKVLTDEQYQAVRAEPTNPSKMRKLFSFTPAWNWTCKDLLLQALRESQSYLVEDLER: the abundance fitness was -0.327 ± 0.14. As for FIDQHSAALIARVTNVEWLLDALYGKVLTDEQYQAVRAEPTNPSKMRKLFSFTPAWNWTCKDLLLQALRESQSYLVEDLER, the figure is -0.385 ± 0.048; as for FIDQYRAALIARVTNVEWLLDALYGKVLTDEQYQAVRAEPTNPSKMRKLFSFTPAWNWTCKDLLLQALRESQSYLVEDLER, -0.316 ± 0.11.
